According to patent US20190225698A1 (JIANGSU HENGRUI MEDICINE, published 2019):

T1: murine CD137 expressed on transfected HEK293 cells (murine, UniProt P20334 24-256)
T1 construct: whole, on cells
T1 sequence (looked up): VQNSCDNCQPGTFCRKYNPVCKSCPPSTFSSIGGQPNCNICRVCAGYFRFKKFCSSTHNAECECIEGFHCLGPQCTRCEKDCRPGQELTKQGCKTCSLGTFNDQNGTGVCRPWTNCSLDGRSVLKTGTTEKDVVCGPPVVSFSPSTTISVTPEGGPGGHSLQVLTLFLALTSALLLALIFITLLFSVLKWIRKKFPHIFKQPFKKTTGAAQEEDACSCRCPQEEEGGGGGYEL

T2: murine CD27 expressed on the cell surface of transfected HEK293 cells (murine, UniProt P41272 24-250)
T2 construct: whole, on cells; also called mouse CD27 antigen expressed by HEK293 cells
T2 sequence (looked up): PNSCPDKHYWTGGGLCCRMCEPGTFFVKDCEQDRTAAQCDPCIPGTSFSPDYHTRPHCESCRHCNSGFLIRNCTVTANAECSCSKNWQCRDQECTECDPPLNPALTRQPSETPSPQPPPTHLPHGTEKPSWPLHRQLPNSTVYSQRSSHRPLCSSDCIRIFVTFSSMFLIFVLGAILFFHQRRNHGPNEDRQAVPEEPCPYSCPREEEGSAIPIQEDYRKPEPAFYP

T3: human CD27 expressed on the cell surface of transfected HEK293 cells (human, UniProt P26842 20-260)
T3 construct: whole, on cells; also called human CD27 antigen expressed by HEK293 cells
T3 sequence (looked up): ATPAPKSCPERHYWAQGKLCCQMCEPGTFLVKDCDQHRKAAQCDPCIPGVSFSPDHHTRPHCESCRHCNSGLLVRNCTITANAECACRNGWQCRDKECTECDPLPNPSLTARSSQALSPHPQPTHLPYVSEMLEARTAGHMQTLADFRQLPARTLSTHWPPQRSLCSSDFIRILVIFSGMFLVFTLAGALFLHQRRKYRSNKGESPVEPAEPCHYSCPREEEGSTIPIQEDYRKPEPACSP

T4: murine TNFRSF1A expressed on transfected HEK293 cells (murine, UniProt P25118 30-454)
T4 construct: whole, on cells
T4 sequence (looked up): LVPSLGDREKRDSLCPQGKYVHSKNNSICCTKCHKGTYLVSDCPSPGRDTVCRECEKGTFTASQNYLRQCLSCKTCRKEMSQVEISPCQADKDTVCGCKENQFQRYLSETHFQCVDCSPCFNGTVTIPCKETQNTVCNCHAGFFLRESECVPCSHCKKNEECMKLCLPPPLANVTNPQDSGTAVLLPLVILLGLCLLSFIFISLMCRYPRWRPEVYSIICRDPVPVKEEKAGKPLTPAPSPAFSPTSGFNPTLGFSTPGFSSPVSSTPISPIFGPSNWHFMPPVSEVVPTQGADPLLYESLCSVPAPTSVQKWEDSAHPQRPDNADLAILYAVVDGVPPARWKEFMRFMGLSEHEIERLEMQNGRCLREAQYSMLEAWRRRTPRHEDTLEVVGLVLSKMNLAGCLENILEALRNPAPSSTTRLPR


Legend:
[1] = biological target: T1, murine CD137 expressed on transfected …; assay: flow cytometry on transfected HEK293 cells
[2] = biological target: T2, murine CD27 expressed on the cell …; assay: flow cytometry on transfected HEK293 cells
[3] = biological target: T3, human CD27 expressed on the cell …; assay: flow cytometry on transfected HEK293 cells
[4] = biological target: T4, murine TNFRSF1A expressed on …; assay: flow cytometry on transfected HEK293 cells
[5] = biological target: T2, murine CD27 expressed on the cell …; assay: flow cytometry on transfected HEK293 cells, 100 nM antibody
Description: (§1) The binding of antibody to human or murine CD27 expressed on cell surface is determined by fluorescence activated cell sorting (FACS). The corresponding antigen was transiently transfected into HEK293 cells using a vector plasmid and expressed. After 48 hours, cells were harvested and washed once with cold FACS buffer (PBS, 1% BSA), and then incubated with 100 nM corresponding antibody for 1 hour on ice. After washing twice with buffer, the cells were bound to Alexa Fluor 647-conjugated murine anti-human Fc antibody for 30 minutes on ice. After washing once, the cells were loaded onto a Beckman® CytoFlex flow cytometer for detection and the percentage of cells with binding signals was calculated.

[6] = biological target: T3, human CD27 expressed on the cell …; assay: as above
Description: as §1

Row | Binder | binding result [1] | binding result [2] | binding result [3] | binding result [4] | binding result [5] | binding result [6]
1 | anti-CD27 antibody mAb076 (IgG1 form) (antibody, V domains shown, Human antibody from phage display) VH: EVQLVESGGGLVQPGGSLRLSCAASGFTFSDYGIHWVRQAPGKGLEWIGWINPNRGSTNYAQKFQGRVTISRDNSKNTLYLQLNSLRAEDTAVYYCARDYGYTWYFDVWGQGTLVTVSS VL: DIQLTQSPSSLSASVGDRVTITCRASQDISSVLAWYQQKPGKAPKLLIYAASSLQSGVPSRFSGSGSGTDFTLTISSLQPEDFATYYCQQRDAWPLTFGQGTKVEIK | no binding (tested: 100 nM) | binds | binds | no binding (tested: 100 nM) | – | –
2 | anti-CD27 antibody mAb077 (IgG1 form) (antibody, V domains shown, Human antibody from phage display) VH: EVQLVESGGGLVQPGGSLRLSCAASGFTFSGYGIHWVRQAPGKGLEWIGWINPNRGSTKYAQKFQGRVTISRDNSKNTLYLQLNSLRAEDTAVYYCARDPGYTWYFDVWGQGTLVTVSS VL: DIQLTQSPSSLSASVGDRVTITCRASQDISSDLAWYQQKPGKAPKLLIYAASTLQSGVPSRFSGSGSGTDFTLTISSLQPEDFATYYCQQRDAWPPTFGQGTKVEIK | no binding (tested: 100 nM) | – | – | no binding (tested: 100 nM) | binds | binds
